From the nanobody polyreactivity screen of Harvey et al. (2022)

Experiment: yeast display, Sf9 membrane polyspecificity reagent, FACS + sequencing; frameworks hold sequencing errors
Outline: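 Nanobodies came from a synthetic yeast display library in Saccharomyces cerevisiae BJ5465, induced with galactose for 36–48 hours and stained for 1 hour at 4 °C with 10% biotinylated, detergent-solubilized Sf9 membrane reagent. Cells were enriched on streptavidin microbeads and then FACS-sorted, with low and high (top ~1%) gates set on anti-HA fluorescence for expression and streptavidin fluorescence for reagent binding. Each polyreactivity label reflects the gate a clone came from. Genes were amplified by colony PCR, sequenced by MiSeq 2 × 250 and filtered by CDR length.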

Sequence	polyreactivity (PSR sort gate)
QVQLVESGGGLVQAGGSLRLSCAASGSIFSRYTMGWYRQPPGKERELVAAITSSGGRTYYADSVKGRFRISRDNAKNTVYLQLNSLKPVVTAVYYCAARIQKQQGYGYWGQGTQVTVSS	high polyreactivity
QVQLVESGGGLVQAGGSLRLSCAASGSIFSSNAMGWYRQAPGKERELVAAISRRGGSTYYADSVKGRFTISRDNAKNTVYLQMNSLKPEDTAVYYCNAYPWLLSTRYDYWGQGTQVTVSS	high polyreactivity
QVQLVESGGGLVQAGGSLRLSCAASGSIFSSNAMGWYRQAPGKERELVAAISSSGSRTYYADSVKGRFTISRDNAKNTVYLQMNSLKPEDTAVYYCAAVIRYTRSYDYWGQGTQVTVSS	high polyreactivity
QVQLVESGGGLVQAGGSLRLSCAASGSIFSSNVMGWYRQAPGKERELVAAITVRGSRTYYADSVKGRFTISRDNAKNTVYLQMNSLKPEDTAVYYCNAVARVLGSDRRLQYYYWGQGTQVTVSS	high polyreactivity
QVQLVESGGGLVQAGGSLRLSCAASGSIFSSYAMGWYRQAPGKERELVAAISGSGGSTFYADSVKGRFTISRDNAKNTVYLQMNSLKPEDTAVYYCAARYYWYGRAGKKHASYYYWGQGTQVTVSS	high polyreactivity
QVQLVESGGGLVQAGGSLRLSCAASGSIFSSYAMGWYRQAPGKERELVAAISQNGGSTDYADSVKGRFTISRDKAKNTVYLQMNSLKPEDTAVYYCNAYSVYVRGEYWGQGTQVTVSS	high polyreactivity
QVQLVESGGGLVQAGGSLRLSCAASGSIFSSYAMGWYRQAPGKERELVAAITRTGGRTYYADSVKGRFTISRDNAKNTVYLQMNSLKPEDTAVYYCAAKQVSRGVAAYDYWGQGTQVTVSS	high polyreactivity
QVQLVESGGGLVQAGGSLRLSCAASGSIFSSYVMGWYRQAPGKERELVAAISRSGGSTYYADSVKGRFTISRDNAKNTVYLQMNSRKPEDTAFYYCAADWTRGSPGMDYWGQGTQVTVSS	high polyreactivity
QVQLVESGGGLVQAGGSLRLSCAASGSIFSSYVMVWYRQAPGKERELVAAISSSGGSTYYADSVKGRFTISRDNAKNTVYLQMNSLKPEDTAVYYCAARSYYSYYLMYYWGQGTQVTVSS	high polyreactivity
QVQLVESGGGLVQAGGSLRLSCAASGSIFSTYAMGWYRQAPGKERELVAAIRTWSGGRTYYADSVKGRFTISRDNAKNTVYLQMNSLKPEDTAVYYCAAQFSRYRDYGLNYYYWGQGTQVTVSS	high polyreactivity
QVQLVESGGGLVQAGGSLRLSCAASGSIFSTYAMGWYRQAPGKERELVAAISRSGGSTYYADSVKGRFTISRDNAKNTVFLQMNSLKPEDTAVYYCAKVGRRQRYDYWGQGTQVTVSS	high polyreactivity
QVQLVESGGGLVQAGGSLRLSCAASGSIFSTYAMGWYRQAPGKERELVAAISSSSGSTYYADSVKGRFTISRDNAKNTVYLQMNSLKPEDTAVYYCAAAYSQYSTSYYYWGQGTQVTVSS	high polyreactivity
QVQLVESGGGLVQAGGSLRLSCAASGSIFSTYVMVWYRQAPGKERELVAAITVSVGSTYYADSVKGRFTISRDNAKNTVYLQMNSLKPEDTAVYYCAAYGGTGYPFDAYYHDYDYWGQGTQVTVSS	low polyreactivity
QVQLVESGGGLVQAGGSLRLSCAASGSIFSVYAMGWYRQAPGKERELVAAISRGDSTYYADSVKGRFTISRDNAKNTVYLQMNSLKPEDTAVYYCAKAYLRYYDGPYDYWGQGTQVTVSS	low polyreactivity
QVQLVESGGGLVQAGGSLRLSCAASGSIFSVYAMGWYRQAPGKERELVAAITRGGNTYYADSVKGRFTISRDNAKNTVYLQMNSLKPEDTAVYYCNAGPYGRFYYRGLGYWGQGTQVTVSS	low polyreactivity
QVQLVESGGGLVQAGGSLRLSCAASGSIFSVYAMGWYSQAPGKEREVVAASTSSGGSTYYADSVKGRFTISRDNAKNTVHFQMNSLKPEDTAVYYCAADKYVRRLSWYRYGYWGQGTQVTVSS	high polyreactivity
QVQLVESGGGLVQAGGSLRLSCAASGSIFSWYAMGWYRQAPGKERELVAAITWTGGSTYYADSVKGRFTISRDNAKNTVYLQMLSLKPEDTAVYYCAARRVVYRYYWYSAYDYWGQGTQVTVSS	high polyreactivity
QVQLVESGGGLVQAGGSLRLSCAASGSIFSWYAMGWYRQAPGKEWELVAAITWSGGSTYYADSVKGRFTISRDNAKKTVYLQMNSLKPEDTAVYYCAASYDIYGNYRRYDYWGQGTQVTVSS	high polyreactivity
QVQLVESGGGLVQAGGSLRLSCAASGSIFSWYTMGWYRQAPGKERELVAAISRRGGSTYYADSVKGRFTISRDNAKNTVFLQMNSLKPEDNAVYYCAAAHPATRYDYWGQGTQVTVSS	high polyreactivity
QVQLVESGGGLVQAGGSLRLSCAASGSIFSWYTMGWYRQAPGKERELVARITTSGGTSTYYADSVKGRFTISRDNAKNTVYLQMNSLKPEDTAVYYCAADSPTSLYEYWGQGTQVTVSS	high polyreactivity
QVQLVESGGGLVQAGGSLRLSCAASGSIFSYNGKGWYRQAPGKERELVATISASSVTTYYADSVKGRFTISRDNAKNTVYLQMNSLKPEDTAVYYCARDAYSVYYYVFLHWEYDYWGQGTQVTVSS	high polyreactivity
QVQLVESGGGLVQAGGSLRLSCAASGSIFSYYAMGWSRQAPGKERELVAAIRRGGSTNYADSVKGRFTISRDNAKNTVYLQMNSLKPEDTAVYYCAASLGWRPSFSYYWGQGTQVTVSS	high polyreactivity

Sequence	polyreactivity (PSR sort gate)
QVQLVESGGGLVQAGGSLRLSCAASGSIFSYYAMGWYRPAPGKERELVAAISKRGPSTYYADSVKGRFTISRDNAKNSVYLLMNSLKPEDTAVYYCAAKYSRRSSVSYYYWGQGTQVTVSS	high polyreactivity
QVQLVESGGGLVQAGGSLRLSCAASGSIFSYYAMGWYRQAPGKEREFVAAITKSGGSTYYADSVKGRFTISRDNAKNTVYLQMNSLKPEDTAVYYCAADEGGFWWTYPYDSWGQGTQVTVSS	low polyreactivity
QVQLVESGGGLVQAGGSLRLSCAASGSIFSYYAMGWYRQAPGKEREFVAAITKSGGSTYYADSVKGRFTISRDNAKNTVYLQMNSLKPEDTAVYYCAVRYKLYYYGYDYWGQGTQVTVSS	low polyreactivity
QVQLVESGGGLVQAGGSLRLSCAASGSIFSYYAMGWYRQAPGKERELVAAISYSGSDTYYADSVKGRFTISRDNAKNTVYLQMNSLKPEDTAVYYCAAEDPSYSYDYWGQGTQVTVSS	low polyreactivity
QVQLVESGGGLVQAGGSLRLSCAASGSIFSYYAMGWYRQAPGKERELVAAITRGGTTYYADSVKGRFTISRDNAKNTVYLQRNSLKPEDTAVYYCAASDYYGEYEYWGQGTQVTVSS	high polyreactivity
QVQLVESGGGLVQAGGSLRLSCAASGSIFSYYAMGWYRQAPGKERELVAGITWSGGRTYYADSVKGRFTISRDHAQNTVYLQMNSLKPEDTAVYYCAAVQWFSRRSRYDYWGQGTQVTVSS	high polyreactivity
QVQLVESGGGLVQAGGSLRLSCAASGSIFSYYAMGWYRQAPGKERELVATISSVGSTNYADSVKGRFTISRDNPKNTVYLQMNSLKPEDTAVYYCAATIGHNGFDYWGQGTQVTVSS	low polyreactivity
QVQLVESGGGLVQAGGSLRLSCAASGSIFSYYAMGWYRQAPGKERELVATISWSGGSTYYADSVKGRFTISRDNAKNTVYLQMNSLKPEDTAVYYCAARKYGQRYRRDYWGQGTQVTVSS	low polyreactivity
QVQLVESGGGLVQAGGSLRLSCAASGSIFSYYAMGWYRQAPGKERELVSANTSGDGTNYADSVKGRFTISRDNAKNTVYLQMNILKPDDTAVYYCAADAVDSYWREDYWGQGTQVTVSS	low polyreactivity
QVQLVESGGGLVQAGGSLRLSCAASGSIFSYYDMGWYRQAPGKERELVASISSGGSTYYADSVKGRFTISRDNAKNTVYLQMNSLKPEDTAVYYFGAVSRWLYWEDVYWGQGTQVTVSS	low polyreactivity
QVQLVESGGGLVQAGGSLRLSCAASGSIFSYYVMGWYRQAPGKERELVAAITRSGGSTYYADSVKGRFTISRDNAKNTVYLQMNRLKPEDTAVYYCAATYSHRRGDYWGQGTQVTVSS	high polyreactivity
QVQLVESGGGLVQAGGSLRLSCAASGSIFSYYVMGWYRQAPGKERELVARINWSSTSTYYADSVKGRFTISRDNAKNTVYLQMNSLKPEDTAVYYCAAAKRYGRYYEYDYWGQGTQVTVSS	high polyreactivity
QVQLVESGGGLVQAGGSLRLSCAASGSIFTAYARGWYRQAPGKERELVAAISRSGGRTYYADSVKGRFTISRDNPKKTVYLQMNSLKPEDTAVYYCAARRRRYIANLYNYWGQGTQVTVSS	high polyreactivity
QVQLVESGGGLVQAGGSLRLSCAASGSIFTAYDMGWYRQAPGKERELVAAINVSAGTTYYADSVKGRFTISRDNAKNTVYLQMNSLKPEDTAVYYCAATFGGWGYVYVHYYYWGQGTQVTVSS	high polyreactivity
QVQLVESGGGLVQAGGSLRLSCAASGSIFTAYTMGWYRQAPGKERELVAAITERGGSTYYADSVKGRFTISRDNAKNTVYLQMNSMKPEDTAVYYCAASTLKDIYLWFRVDYWGQGTQVTVSS	low polyreactivity
QVQLVESGGGLVQAGGSLRLSCAASGSIFTDNVMGWYRQAPGKERELVAAITYSAASTYYADSVKGRFTISRDNAKNTVYLQMNSLKPEDTAVYYCATEYYIGVNYRGDYWGQGTQVTVSS	low polyreactivity
QVQLVESGGGLVQAGGSLRLSCAASGSIFTEYVMGWYRQAPGKERELVAAAITRGGSTNYADSVKGRFTISRDNAKNSVYLQMYCLKPEDTAVYYCNKDVWPVSRQLYTGKYDSWGQGTQVTVSS	low polyreactivity
QVQLVESGGGLVQAGGSLRLSCAASGSIFTFYAMGWYRQAPGKERELVATITISTGSTYYADSVKGRFTISRDNAKNTVYLQMNCLKPEDTAVYYCAARRRSAEYNYWGQGTQVTVSS	high polyreactivity
QVQLVESGGGLVQAGGSLRLSCAASGSIFTHNAMGWYRQAPGKERVLVAAISSGGSTNYADSVKGRFTISRDNAKNTVYLQMNSLKPEDTAVYYCAKSIDGWYWRRRRYDYWVQGTQVTVSS	low polyreactivity
QVQLVESGGGLVQAGGSLRLSCAASGSIFTIYAMGWYRQAPGKERELVAAITWSGGSTYYADSVKGRFTISRDNAKNTVYLQMNSLKPEDTAVYYCAAKYYGEMYYWGQGTQVTVSS	low polyreactivity
QVQLVESGGGLVQAGGSLRLSCAASGSIFTKYAMGWYRQAPGKERELVAGISRTTGSTYYADSVKGRFTISRDNAKNTVYLQMNSLKPEDTAVSYCNAVYGHGNYFRSEDDYWGQGTQVTVSS	high polyreactivity
